The results in this text go back to US7250505.

For assay [1], the target named is fluorescein-labeled APP peptide (Mus musculus (Mouse)) (UniProt P12023). The assay can be described thus: fluorescence polarization, about 1 nM fluorescein-labeled APP peptide titrated with GST-PTB. (In general: In fluorescence polarisation assays a small probe gives low polarisation when free and higher when bound to something large.)
In assay [2] the target is APP synthetic peptide containing the NPXY region (non-phosphorylated) (Mus musculus (Mouse)) (UniProt P12023). In words: fluorescence polarization.
The target in assay [3] is APP peptide with arginine in place of Pro-2. The assay can be described thus: substitution scan on a cellulose peptide array, radiolabeled GST-PTB.
In assay [4] the target is APP peptide with isoleucine in place of Pro-2. Described as above.
In assay [5] the target is APP peptide with lysine in place of Pro-2. The assay is described as above.
Assay [6] concerns the target activated Src (Src527F) (UniProt P00523). In words: co-immunoprecipitation with anti-Src from Rat-1 fibroblasts overexpressing both, immunoblot. On the technique in general: Immunoblotting shows a protein as a band on a membrane.
For assay [7], the target named is GST-mDab1 PTB domain fusion protein (mouse). The assay can be described thus: fluorescence polarization competition against the fluorescein-labeled APP peptide, 1.1 µM PTB domain.
Assay [8] has the same target. The assay can be described thus: fluorescence polarization competition.

Regarding “GST-mDab1 PTB domain fusion protein (from UniProt O75553 29-197)”, the Kd in assay [1] worked out at 550 nM; in assay [2], 500 nM. Besides, the percent binding against the wild-type APP peptide in assay [3], in assay [4] and in assay [5] was 40% throughout.

As for “mDab1 p80 (mDab555 product), tyrosine phosphorylated (from UniProt P97318 1-588)”, in assay [6], the percent of the phosphorylated mDab1 of the total cell lysate immunoprecipitated with Src came to 1%.

For the substance “APP synthetic peptide containing the NPXY region (non-phosphorylated) (from UniProt P12023 754-770)”, the competitor concentration of equal effect in assay [7] amounted to 2 µM.

With “phosphorylated APP peptide (from UniProt P12023 754-770)”, the fold reduction of affinity against the non-phosphorylated APP peptide in assay [8] came out at 250 fold. Also, in assay [7], the competitor concentration of equal effect was 500 µM.
